Assay results published in the DeepSol protein solubility set.

Assay: soluble on expression in E. coli; label from the status in PepcDB or PDB records
In the case of “KMKNWIKTVCFLLWTCVMCTACIDDDVEEGTVDLQTGESIPVFSVVMDDGQIITSETLKGEVSLIVFFHTGCPDCRKELPVLQKIYTDYGRRIRMVCISREESSAEIVRYWDENHLTLPYSAQENRTVYYQFAKSGIPRVYVIDKELVIRSVFTDNPLASYEDLAEAITASL”, the “soluble on expression in E. coli” value is reported as “not soluble”.
In the case of “KNNINKTRMNDLNREETRLKTFTDWPLDWLDKRQLAQTGMYFTHAGDKVKCFFCGVEIGSWEQEDQPVPEHQRWSPNCPLLRRRTTNNVPINAEALDRILPPISYDICGANDSTLE”, the “soluble on expression in E. coli” value is reported as “soluble”.
With “KPAKPAAKSIVTLDVKPWDDETNLEEMVANVKAIEMEGLTWGAHQFIPIGFGIKKLQINCVVEDDKVSLDDLQQSIEEDEDHVQSTDIAAMQAL” the “soluble on expression in E. coli” value was “soluble”.
For “KQLEKDLLASAETLQRERHQIANALESEIKTELCDLYMDKADFKVVFTKGKFNRDGNEQVEFYISTNPGEGFKPLVKVASGGELSRLMLAIKSAFARKEDKTSIVFDEVDTGVSGRVAQAIAQKIHKIGSYGQVLAISHLPQVIAIADYQFFISKESDNETTVSRVRLLTPEERVEEIAKMLAGDNLTDAALSQARALLKVDEPV”, the “soluble on expression in E. coli” value was “not soluble”.
With “KRRIRQLELQVRMLEADKERLERELSRLRSEMSRLRQPPAFAGSVIEVLDDDRAIVQNYNGPRFVVRIAPWIDKSKLRPGTRVALDQRTMAIIEILPASKDPAVLGFEVVERPN” the “soluble on expression in E. coli” value was “not soluble”.
With “KSIRLAKEKESQADYISTYVEWQYIDKNITQCFDKMTNMKLEVAWKAKKKDTVVQIHNQDFTVDLSTNTATAPQGQTFTVQRLVKA” the “soluble on expression in E. coli” value was “soluble”.
In the case of “KTEIHGDSTKATLEEGQQLTLTFISTKLDVAVGSCHSLVANFLDGFLKFQTGSNSAFDVVEVEEPAGPAVLTIGLGHKGRLAVVLDYTRLNAALGSAAYVVEDSGCSSSEEVSFQGVGSGATLVVTTLGESPTAVSA”, the “soluble on expression in E. coli” value is reported as “soluble”.
For “KYVDGFLIPIAKDKVNKYREIAQKSSQIWKDLGALEYYECIGDDLDIEELVSFKKVVNASEEETVIFSWIVYESKEQRDKVNEAVMNDPRMKEMMETSEYDLFDYRRMSYGGFKTLVSL”, the “soluble on expression in E. coli” value was “not soluble”.
In the case of “LADYGRTAAVNRVEMRDTELGIVTAGVSYQYVREVFPNASVLKLGMVYPLPMDLIREFASKVTKLIVVEELDAFIEDQVKAAGISVTGKEAIPLCGELTPGRLRAAFGIPGAPQVTVENLPGRPPNMCPGCPHRGVFFTLNQLKAYVTGDIGCYTLGFMPPLNAMDTCVCMGASISSASGIVRVLSDEEKKKVVAVIGDSTFLHTGVNSLMEMAYNKAPATVVILDN”, the “soluble on expression in E. coli” value is reported as “not soluble”.
With “LALIAGTGALPEELVARLSEPPLVCAMEGFAPERLAVDIPFPIEHLGSLVADLKARGVSEICLAGAVGRPAVDPARIDAATLPLVPVIQQALTSGDDGALRAVMGIFENAGLTVRAAHEIAPDLLMPAGCPTKAQPEPAELADARRGAEIVAAMSAADIGQACVVHRGQALAVESVFGTNWMLGSLGQRPDAGGGVLFKAPKPDQDRRADLPTIGPDT” the “soluble on expression in E. coli” value was “not soluble”.
In the case of “LCPDPDDDEGLIVSDSDGMIVDVTEPLPRVTGYSKSELLGMETAALFWLRDGDNHSGHTRAPVSETEGRSHGLLECADGSRITVEQRSYTVRPEAETHVCTTVLFPGDGE”, the “soluble on expression in E. coli” value is reported as “not soluble”.
For “LDARFSDAESNSGLTKATTDTLEAYLDVNEDGTWEVDNFLKKSVDKQHGWMQIIDSEGNTDYSYGVPKDVPGTYTKKELLSIYKTKKLHNYKLNYWAINIEDKSYLLLSGWKSKSEQLLTSVEKREQKIDSLAHYKSSTIDYIKRKKGAIYLLDSNGKILDSINSTKSERKTMNQLELLKYSSKPWNYKREISVKILNKDRWMVATVPNPVYVTDQEFNKSFLK”, the “soluble on expression in E. coli” value was “not soluble”.
For “LDSLNELAVFVDTELKIIWANKAALEYMNMGLEKAIGVCLKVAPGISGPLVEHLNLEEIFTTGEKKSGEYTAQDGRVWFAQAIPVPDEQGKIIGILQTCRDVT”, the “soluble on expression in E. coli” value was “not soluble”.
In the case of “LEKMQAHGLDKVEYKVCTNPGMEPDSLNKIASGGELSRISLAIQMITAQKGSTPTLLFDEVDVGIGGSTAALVGKMLRKLGERLQVFCVTHQPQVAASAHHHFLVTKHSNNNQTFTHISLLKASDKIAEIARMMGGLTITEQTLSHAKELISLSNE”, the “soluble on expression in E. coli” value is reported as “not soluble”.
For “LFAAIVDNLSDGIYVLQDDRVVYLNERFAQLFGHGDAGSLLMRELDDILPHGEGKEIVGRIHAELLAGEPSSVAWGQPFAHMDGTPVWLEMEARRIRLNGRPAILGVCHDRT”, the “soluble on expression in E. coli” value was “not soluble”.
For “LIGDKNTTFVEKLNSLAADHQLPQIGFSTSSEPEWQFVKDLTEVDPEHVVKSYNRQAKYHLNKNKQFCIKLRKIGRDELPAFKRITQQTADRLHYHDKSLDFYETLFDTYGKKAKFIFAEINFKEYSESIEKDLNDIQKKLTEIAGADYHNISDLSDFSASAKRHLSEGIKTETALQKRLQEAKKMHQEAKHDIVLVSVALFVIENQEVVYLYSGSDEKYEHLFAPYEIQDTMITEAVKERIPLYNFYGVSGKFDGSDGVLGFKTHFNGYTREMVGSFDFPVQKTKYYFYRLFKKILHRQ”, the “soluble on expression in E. coli” value was “not soluble”.
For “LINETSRRLNQRLTLTDTMNDLAVRMAESFQAEEVGFFHIDHFENLTLLPGSTAFFKEAKPSDFYNELKEKLYEGEKGVFIGNGQSVFGKAGYGSLMAAPMIQNDRLLGFAVLLKQELYAFTFEMYKLFQALIHHATLAVTNSMLRDRLE”, the “soluble on expression in E. coli” value was “soluble”.
For “LKCSTVVCVICLEKPKYRCPACRVPYCSVVCFRKHKEQCNPET”, the “soluble on expression in E. coli” value was “soluble”.
For “LKKKVGIISLGCPKNLVDSEIMLGLLKKNDFEITSDSEEANVIIVNTCGFIESAKEESINTILEMANYKNKNCEMLIVAGCLAQRYKDEIIKEMPEVDAVVGVSGYDEIAKVIEEFYSKKNDKNDKEKAVFHKDTLSVEYLNNERLLSTNSGYAYLKISEGCDNRCTYCAIPYIRGPYRSRKMEDIISEAEFLAGKGVKEVILVAQDVTVYGKDLYGQKKLVELVREVSGIEGIEWIRLLYTYPEEIDEELIKEIANNEKVVKYLDIPIQHASDKILKLMGRRSTSEGIRNILDRLRAEVPDIVLRTSLIVGFPGEDEKDFKILYDFVRKYEFDRLGVFTYSREEGTPAYDLKPQIKKSVKESRRNDIMQLQKEIVQRKNESRLEKVYKTLVEGVSEDGIFYYGRTYAEAPDIDGSVYFTSAEPLKFGEFVNVKVLNIDDYDLIGEVINESSK”, the “soluble on expression in E. coli” value was “soluble”.
With “LLFLSRERGPSQSTPSLISSAAPTMIKMEVNGHGKAMALGEGPPLPAGVQVPAGPQTVMGPGLAPMLAPPPRRTPKQHNCQSCGKTFSSASALQIHERTHTGEKPFGCTICGRAFTTKGNLKVHMGTHMWNNAPARRG” the “soluble on expression in E. coli” value was “soluble”.
For “LLSDYYHKRFGVDTRSVRFPGLISNVTLPGGGTTDYAVDIYYAAVKEGRFTCPIKEGTYMDMMYMPDALRACVELMEADPARLVHRNSFNITAMSFEPSQIAAAVKKLVPDFVMNYEVDPLRQGIAESWPNSLDDSCARSEWDWKPDYDLDSMSADMIQILKARYGK”, the “soluble on expression in E. coli” value was “not soluble”.
In the case of “LQNKFKKYSKIPTGNGMTGRDVAIKMLQDNGIYDVQVTHTPGQLTDHYNPANKTVNLSEGVYDSNSIMAAAVAAHECGHAVQHARAYAPLTLRSK”, the “soluble on expression in E. coli” value is reported as “not soluble”.
In the case of “LRLWALTATECRLLLSTRWNVGRLYQLPVAASAEFASYQTQRDQLRQTFKNIASEILNPDDPRTDLPFHIALSVIEMRSNDGVVPEPLRDDE”, the “soluble on expression in E. coli” value is reported as “not soluble”.
With “LTDIRKKAATTLEKQIKQELNQLYMEKAIFSVHFESDKTELTESGQDSVVFYMSTNPGEPLKPLAKIASGGELSRMMLALKTIFSRHQGITSIIFDEVDTGVSGRVGQAIAEKIYAVSVGSQVLCISHLPQVAAMANHHYYITKKVQNKRTTTSVTILKGEQKVEEISRMIAGIEVTELTKQHAKEMIQQAEKVKQTY” the “soluble on expression in E. coli” value was “not soluble”.
In the case of “LTELYDAIPASIIIIDERMRLIGWNRFSRDTINGLSDNEMPGINPMKRVHPDDLPEMIRKMRNVIDLDIELSAEFRMYHKSGPPYKWAMCRGKRTIIEGKTCVVAVVTEIT”, the “soluble on expression in E. coli” value is reported as “not soluble”.
With “LTNRGLKQVGWYLPAAQKTKKTAIVVHGFTNDKEDMKPYAMLFHDLGYNVLMPDNEAHGESEGNLIGYGWNDRLNVMAWTDQLIKENPESQITLFGLSMGAATVMMASGERLPAQVTSLIEDCGYASVWDELKFQAKAMYNLPAFPLLYEVSALSKIRAGFSYGEASSVKQLAKNKRPTLFIHGDKDDFVPTKMVYDNYKATKGPKEILIVKGAKHAKSFETNPEQYQKKIAAFLKKVEK” the “soluble on expression in E. coli” value was “not soluble”.
For “LTSSNALRGDAHSRLAAHRGLLERTSRTTRVAGILRDAIIDGTFRPGARLSEPDICAALDVSRNTVREAFQILIEDRLVAHELNRGVFVRVPTAEDITELYICRRVVECAGVNGFDPATGDLSRVAEALDLADERYAVEDWTGVGTADIHFHSALASLNNSNRIDELMRSVWNEARLVFHVMDDAHRFHGPYLTRNHEIYDALAAGNTEAAGQLLKTYLEDAEAQILGAYRPVSG”, the “soluble on expression in E. coli” value was “soluble”.
In the case of “LTVSARDAPTKISTLAVKVHGGSRYATKDGVAHLLNRFNFQNTNTRSALKLVRESELLGGTFKSTLDREYITLKATFLKDDLPYYVNALADVLYKTAFKPHELTESVLPAARYDYAVAEQCPVKSAEDQLYAITFRKGLGNPLLYDGVERVSLQDIKDFADKVYTKENLEVSGENVVEADLKRFVDESLLSTLPAGKSLVSKSEPKFFLGEENRVRFIGDSVAAIGIPVNKASLAQYEVLANYLTSALSELSGLISSAKLDKFTDGGLFTLFVRDQDSAVVSSNIKKIVADLKKGKDLSPAINYTKLKNAVQNESVSSPIELNFDAVKDFKLGKFNYVAVGDVSNLPYLDEL”, the “soluble on expression in E. coli” value is reported as “soluble”.
In the case of “LVPRGSDSSRRQYQEKYKQVEQYMSFHKLPADFRQKIHDYYEHRYQGKMFDEDSILGELNGPLREEIVNFNNRKLVASMPLFANADPNFVTAMLTKLKFEVFQPGDYIIREGTIGKKMYFIQHGVVSVLTKGNKEMKLSDGSYFGEISLLTRGRRTASVRADTYSRLYSLSVDNFNEVLEEYPMMRRAFETVAIDRLDRIGKKN”, the “soluble on expression in E. coli” value is reported as “soluble”.
For “LWGIFVEQADGHYRVRLRSKIHPINEIAKEHDGGGHPLASGANSYSLEENEIIY”, the “soluble on expression in E. coli” value was “soluble”.
